The text below walks through data of patent US20170044230A1 (USTAV ORGANICKE CHEMIE A BIOCHEMIE AV CR, V.V.I., priority 2014, published 2017).

The target of assay [1] is T1, human GHS-R1a receptor (growth hormone secretagogue receptor 1a) (human, UniProt Q92847 1-366).
T1 construct: whole, on cells; Functional assays: HEK-293T cells transiently transfected with human GHS-R1a; also called ghrelin receptor
Briefly: competitive displacement of 125I-ghrelin, membranes of HEK293T cells with transfected human GHS-R1a. Here is the method: Competitive binding studies were performed according to the principles of Motulsky and Neubig (Motulsky & Neubig, 2002). Isolated plasma membranes from the HEK293T cells with transfected human GHS-R1a receptor (Multispan, Hayward, Calif., USA) were used. […] The binding reaction was stopped by the addition of ice-cold washing buffer (20 mM Tris pH 7.4, 10 mM MgCl₂, 2.5 mM EDTA, 0.015% Triton X-100) followed by rapid filtration over GF/C filters (Whatman, Clifton, N.J., USA) presoaked with 0.5% PEI in binding buffer using a Brandel cell harvester (Brandel Inc., Gaithersburg, Md., USA). Bound radioactivity was determined by gamma counting (Wizard 1470 Automatic Gamma Counter; PerkinElmer Life and Analytical Sciences, Waltham, Mass.).
(In general: Loss of bound radioactivity is the signal in a displacement assay; it reports binding, not function.)

The target of assay [2] is T1, human GHS-R1a receptor (growth hormone …). Briefly: cell-based or functional assay.

Non-standard residues stand in square brackets, D forms with d. No end group written: not given here. *: point of attachment. Palmitoyl = CCCCCCCCCCCCCCCC(=O)*; Myristoyl = CCCCCCCCCCCCCC(=O)*; Decanoyl = CCCCCCCCCC(=O)*; Octanoyl = CCCCCCCC(=O)*; Dap = NC[C@H](N)C(=O)O; Sar = CNCC(=O)O

T1 sequence (Q92847 whole entry): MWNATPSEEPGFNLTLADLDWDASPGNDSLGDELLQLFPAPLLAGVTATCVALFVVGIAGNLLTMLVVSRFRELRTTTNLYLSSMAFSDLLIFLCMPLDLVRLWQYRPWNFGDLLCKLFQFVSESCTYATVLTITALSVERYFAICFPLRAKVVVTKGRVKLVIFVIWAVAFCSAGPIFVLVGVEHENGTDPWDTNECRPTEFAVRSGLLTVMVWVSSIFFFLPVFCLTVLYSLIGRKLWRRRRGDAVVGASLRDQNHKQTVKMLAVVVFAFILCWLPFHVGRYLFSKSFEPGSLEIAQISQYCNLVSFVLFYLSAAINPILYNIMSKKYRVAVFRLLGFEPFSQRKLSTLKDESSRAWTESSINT

B1: ghrelin analog no. 18, (Sar)S(Dpr-N-myr)FLSPEHQKAQQRKES (peptide)
peptide: [Sar]S[Dap](Myristoyl)FLSPEHQKAQQRKES
For B1, in assay [1], the “% of ghrelin binding” value came to 34%; the inhibition constant Ki (usually the dissociation constant of the complex between target and ligand, obtained from inhibition or displacement) turned out to be 3.38 nM.

B2: ghrelin analog no. 11, (Sar)S(Dpr-N-10-undecyn)FLSPEHQKAQQRKESKKPPAKLQPR (peptide)
peptide: XSXFLSPEHQKAQQRKESKKPPAKLQPR
modifications: sarcosine (Sar) at position 1; diaminopropionic acid N-10-undecynoyl (Dpr-N-10-undecyn) at position 3
notes: Synthetic ghrelin analog
Take B2: in assay [1], the “% of ghrelin binding” value turned out to be 139% and the affinity corresponds to a Ki of 0.83 nM.

B3: ghrelin analog no. 5, (Sar)S(Dpr-N-dec)(Cha)LSPEHQKAQQRKESKKPPAKLQPR (peptide)
peptide: XSXXLSPEHQKAQQRKESKKPPAKLQPR
modifications: sarcosine (Sar) at position 1; diaminopropionic acid N-decanoyl (Dpr-N-dec) at position 3; cyclohexylalanine (Cha) at position 4
notes: Synthetic ghrelin analog
For B3, in assay [2], the “Ca^2+ - EC50 [nM] (intracellular calcium mobilization, Fluo-4AM)” value is 10.6 nM and the “IP1 - EC50 [nM] (inositol phosphate accumulation, IP-One HTRF)” value (shortened to “IP1 - EC50 [nM]”) came to 3.28 nM. In assay [1], the “% of ghrelin binding” value is 110% and the Ki worked out at 1.04 nM.

B4: ghrelin analog no. 14, (Sar)S(Dpr-N-myr)(PheCl2)LSPEHQKAQQRKESKKPPAKLQPR (peptide)
peptide: XSXXLSPEHQKAQQRKESKKPPAKLQPR
modifications: not fully specified; sarcosine (Sar) at position 1; diaminopropionic acid N-myristoyl (Dpr-N-myr) at position 3; dichlorophenylalanine (PheCl2) at position 4
notes: Synthetic ghrelin analog; also called analog 14
As for B4, in assay [1], the “% of ghrelin binding” value is 7% and the affinity corresponds to a Ki of 16.8 nM.

B5: ghrelin analog no. 17, (Sar)S(Dpr-N-dec)FLSPEHQKAQQRKES (peptide)
peptide: [Sar]S[Dap](Decanoyl)FLSPEHQKAQQRKES
Regarding B5, in assay [1], the “% of ghrelin binding” value was 30% and the affinity corresponds to a Ki of 3.71 nM.

B6: Dpr^3ghrelin (peptide)
peptide: GSXFLSPEHQKAQQRKESKKPPAKLQPR
modifications: diaminopropionic acid (Dpr) bearing octanoyl at position 3
notes: Synthetic ghrelin analog
B6: the “IP1 - EC50 [nM]” value in assay [2] was 16.3 nM. Besides, in assay [1], the “% of ghrelin binding” value was found to be 169% and the Ki amounted to 0.68 nM.

B7: ghrelin analog no. 16, (Sar)S(Dpr-N-myr)FLSPEHQKAQQRK(N-palm)ES (peptide)
peptide: [Sar]S[Dap](Myristoyl)FLSPEHQKAQQRK(Palmitoyl)ES
Regarding B7, in assay [1], the “% of ghrelin binding” value is 2% and the inhibition constant (Ki) was determined as 51 nM.

B8: ghrelin analog no. 6, (Sar)S(Dpr-N-myr)(Cha)LSPEHQKAQQRKESKKPPAKLQPR (peptide)
peptide: XSXXLSPEHQKAQQRKESKKPPAKLQPR
modifications: sarcosine (Sar) at position 1; diaminopropionic acid N-myristoyl (Dpr-N-myr) at position 3; cyclohexylalanine (Cha) at position 4
notes: Synthetic ghrelin analog
With B8, in assay [2], the “Ca^2+ - EC50 [nM] (intracellular calcium mobilization, Fluo-4AM)” value came to 11.4 nM and the “IP1 - EC50 [nM]” value was 3.08 nM. Besides, in assay [1], the “% of ghrelin binding” value amounted to 18% and the Ki is 6.41 nM.

B9: Ghrelin (peptide)
chain: GSS(Octanoyl)FLSPEHQKAQQRKESKKPPAKLQPR
As for B9, the “% of ghrelin binding” value in assay [1] was determined as 100%.

B10: ghrelin analog no. 7, (Sar)S(Dpr-N-oct)FLSPEHQKAQQRKESKKPPAK(N-palm)LQPR (peptide)
peptide: XSXFLSPEHQKAQQRKESKKPPAKLQPR
modifications: sarcosine (Sar) at position 1; diaminopropionic acid N-octanoyl (Dpr-N-oct) at position 3; Lys 24 N-palmitoyl (K(N-palm))
notes: Synthetic ghrelin analog
Take B10: in assay [1], the “% of ghrelin binding” value came to 19% and the inhibition constant Ki was 6.09 nM.

B11: ghrelin analog no. 3, (Sar)S(Dpr-N-dec)(1-Nal)LSPEHQKAQQRKESKKPPAKLQPR (peptide)
peptide: XSXXLSPEHQKAQQRKESKKPPAKLQPR
modifications: sarcosine (Sar) at position 1; diaminopropionic acid N-decanoyl (Dpr-N-dec) at position 3; 1-naphtylalanine (1-Nal) at position 4
notes: Synthetic ghrelin analog
As to B11, in assay [2], the “Ca^2+ - EC50 [nM] (intracellular calcium mobilization, Fluo-4AM)” value is 18.6 nM and the “IP1 - EC50 [nM]” value came to 2.08 nM. Moreover, in assay [1], the “% of ghrelin binding” value was found to be 176% and the Ki turned out to be 0.65 nM.
